Test [1] deals with T1, soluble HLA-B*1801 (human).
T1 construct: Member of the panel of 53 single-specificity sHLA
Nature of the test: FP screen.

In test [2] the target is T2, soluble HLA-B*2705 (sHLA-B*2705) (human).
T2 construct: Recombinant soluble class I with endogenous peptides, made as m1; negative control
Briefly: FP screen.

Test [3] deals with T3, soluble HLA-B*1501 (human).
T3 construct: Member of the panel of 53 single-specificity sHLA
Briefly: FP screen.

Test [4] has as its target T4, soluble HLA-A*6801 (sHLA-A*6801) (human).
T4 construct: Recombinant soluble class I with endogenous peptides, made as m1
Nature of the test: FP screen.

Test [5] addresses T5, soluble HLA-A*6901 (sHLA-A*6901) (human).
T5 construct: Recombinant soluble class I with endogenous peptides, made as m1
Briefly: FP screen.

Test [6] concerns the target T6, soluble HLA-B*1512 (human).
T6 construct: Member of the panel of 53 single-specificity sHLA
Nature of the test: FP screen.

In test [7] the target is T7, soluble HLA-A*2301 (human).
T7 construct: Member of the panel of 53 single-specificity sHLA
Briefly: FP screen.

The target in test [8] is T8, soluble HLA-B*4002 (human).
T8 construct: Member of the panel of 53 single-specificity sHLA
Briefly: FP screen.

For test [9], the target named is T9, soluble HLA-A*1102 (sHLA-A*1102) (human, UniProt P04439 25-308; P61769 21-119).
T9 construct: Recombinant soluble class I with endogenous peptides, made as m1
Briefly: FP screen.

Test [10] addresses T10, soluble HLA-A*2402 (human).
T10 construct: Member of the panel of 53 single-specificity sHLA
Briefly: FP screen.

The target of test [11] is T11, soluble HLA-A*3002 (human).
T11 construct: Member of the panel of 53 single-specificity sHLA
Briefly: FP screen.

Test [12] has as its target soluble HLA-A*0201 (sHLA-A*0201) (human). Nature of the test: FP screen.
Test [13] concerns the target T12, soluble HLA-B*4001 (human).
T12 construct: Member of the panel of 53 single-specificity sHLA
Briefly: FP screen.

Test [14] deals with T13, soluble HLA-A*6601 (human).
T13 construct: Member of the panel of 53 single-specificity sHLA
Briefly: FP screen.

Test [15] has as its target T14, soluble HLA-B*4402 (human).
T14 construct: Member of the panel of 53 single-specificity sHLA
Briefly: FP screen.

Test [16] concerns the target T15, soluble HLA-B*1302 (human).
T15 construct: Member of the panel of 53 single-specificity sHLA
Briefly: FP screen.

Test [17] addresses T16, soluble HLA-B*4501 (human).
T16 construct: Member of the panel of 53 single-specificity sHLA
Briefly: FP screen.

Test [18] addresses T17, soluble HLA-A*0301 (human).
T17 construct: Member of the panel of 53 single-specificity sHLA
Briefly: FP screen.

Test [19] concerns the target T18, soluble HLA-A*2902 (human).
T18 construct: Member of the panel of 53 single-specificity sHLA
Briefly: FP screen of 53 sHLA with FITC-peptide.

Test [20] has as its target T19, soluble HLA-A*0101 (human).
T19 construct: Member of the panel of 53 single-specificity sHLA
Nature of the test: FP screen of 53 sHLA with FITC-peptide.

Test [21] concerns the target T1, soluble HLA-B*1801. Briefly: FP screen. This is another data set of the same source.
Test [22] deals with T2, soluble HLA-B*2705 (sHLA-B*2705). Briefly: FP screen. This is another data set of the same source.
Test [23] has as its target T3, soluble HLA-B*1501. Nature of the test: FP screen. This is another data set of the same source.
Test [24] concerns the target T5, soluble HLA-A*6901 (sHLA-A*6901). Briefly: FP screen. This is another data set of the same source.
The target of test [25] is T6, soluble HLA-B*1512. Briefly: FP screen. This is another data set of the same source.
In test [26] the target is T7, soluble HLA-A*2301. Briefly: FP screen. This is another data set of the same source.
Test [27] concerns the target T8, soluble HLA-B*4002. Briefly: FP screen. This is another data set of the same source.
Test [28] concerns the target T10, soluble HLA-A*2402. Briefly: FP screen. This is another data set of the same source.
Test [29] has as its target T11, soluble HLA-A*3002. Briefly: FP screen. This is another data set of the same source.
For test [30], the target named is T19, soluble HLA-A*0101. Nature of the test: FP screen.
For test [31], the target named is soluble HLA-A*0201 (sHLA-A*0201) (human). Briefly: FP screen. The source holds these as a separate data set.
A further test addresses T20, soluble HLA-A*2601 (human).
T20 construct: Member of the panel of 53 single-specificity sHLA
Briefly: FP screen.

Test [32] has as its target T12, soluble HLA-B*4001. Briefly: FP screen. This is another data set of the same source.
Test [33] deals with T13, soluble HLA-A*6601. Briefly: FP screen. This is another data set of the same source.
Test [34] deals with T21, soluble HLA-A*4301 (sHLA-A*4301) (human).
T21 construct: Recombinant soluble class I with endogenous peptides, made as m1
Nature of the test: FP screen.

Test [35] addresses T14, soluble HLA-B*4402. Nature of the test: FP screen. The source holds these as a separate data set.
The target of test [36] is T15, soluble HLA-B*1302. Briefly: FP screen. This is another data set of the same source.
Test [37] has as its target T16, soluble HLA-B*4501. Briefly: FP screen. The source holds these as a separate data set.
The target of another test is T22, soluble HLA-A*3601 (human).
T22 construct: Member of the panel of 53 single-specificity sHLA
Nature of the test: FP screen.

For another test, the target named is T23, soluble HLA-A*3402 (human).
T23 construct: Member of the panel of 53 single-specificity sHLA
Briefly: FP screen of 53 sHLA with FITC-peptide.

The target of test [38] is T17, soluble HLA-A*0301. Briefly: FP screen of 53 sHLA with FITC-peptide.
Test [39] deals with T3, soluble HLA-B*1501. Nature of the test: FP screen of 53 sHLA with FITC-peptide.
In test [40] the target is T18, soluble HLA-A*2902. Briefly: FP screen of 53 sHLA with FITC-peptide. The source holds these as a separate data set.
Test [41] concerns the target T13, soluble HLA-A*6601. Briefly: FP screen of 53 sHLA with FITC-peptide.

Read-outs that look alike come from different tables or passages of the source. Ends that are not written are not given here.

Consider YLEPAKAKY (also: FITC-labeled, position not given here) [YLEPAKAKY, FITC-labeled A1-like peptide], for which the binding result (with soluble HLA-B*1801 [1]; in test [2]; with soluble HLA-B*1501 [3]; in [4]; in test [5]; with soluble HLA-B*1512 [6]) was “no binding (tested: 100 ug/ml sHLA)” throughout. Besides, the binding result (in the test with soluble HLA-A*2301 [7]; in the test with soluble HLA-B*4002 [8]; in test [9]; with soluble HLA-A*2402 [10]; with soluble HLA-A*3002 [11]; in test [12]) was “no binding (tested: 100 ug/ml sHLA)” each time. Also, the binding result with soluble HLA-B*4001 [13], with soluble HLA-A*6601 [14], with soluble HLA-B*4402 [15], with soluble HLA-B*1302 [16], with soluble HLA-B*4501 [17] and with soluble HLA-A*0301 [18] was “no binding (tested: 100 ug/ml sHLA)” each time. In addition, the binding result with soluble HLA-A*2902 [19] and with soluble HLA-A*0101 [20] was “binds” throughout.
Take KVFPKALINK (also: FITC-labeled, position not given here) [KVFPKALINK, FITC-labeled A3-like peptide]: the binding result (with soluble HLA-B*1801 [21]; in [22]; in the test with soluble HLA-B*1501 [23]; in test [24]; with soluble HLA-B*1512 [25]; in the test with soluble HLA-A*2301 [26]) was “no binding (tested: 100 ug/ml sHLA)” in each case. Moreover, the binding result (in the test with soluble HLA-B*4002 [27]; with soluble HLA-A*2402 [28]; with soluble HLA-A*3002 [29]; with soluble HLA-A*0101 [30]; in test [31]; in the test with soluble HLA-A*2601) was “no binding (tested: 100 ug/ml sHLA)” each time. Besides, the binding result (with soluble HLA-B*4001 [32]; with soluble HLA-A*6601 [33]; in [34]; with soluble HLA-B*4402 [35]; in the test with soluble HLA-B*1302 [36]; in the test with soluble HLA-B*4501 [37]) was “no binding (tested: 100 ug/ml sHLA)” throughout. In addition, the figures for the binding result with soluble HLA-A*3601, with soluble HLA-A*3402 and in the test with soluble HLA-A*0301 [38] were “no binding (tested: 100 ug/ml sHLA)”, “binds” and “binds”, respectively.
As for SLFRAVIKK (also: FITC-labeled, position not given here) [SLFRAVIKK, FITC-labeled A3-like peptide], the binding result (in the test with soluble HLA-B*1801 [21]; in test [22]; in test [24]; in the test with soluble HLA-B*1512 [25]; with soluble HLA-A*2301 [26]; with soluble HLA-B*4002 [27]) was “no binding (tested: 100 ug/ml sHLA)” each time. Also, the binding result (with soluble HLA-A*2402 [28]; with soluble HLA-A*3002 [29]; with soluble HLA-A*0101 [30]; in test [31]; with soluble HLA-A*2601; with soluble HLA-B*4001 [32]) was “no binding (tested: 100 ug/ml sHLA)” in each case. Further, the binding result in [34] is reported as “no binding (tested: 100 ug/ml sHLA)”; with soluble HLA-B*4402 [35], “no binding (tested: 100 ug/ml sHLA)”; in the test with soluble HLA-B*4501 [37], “no binding (tested: 100 ug/ml sHLA)”; with soluble HLA-A*3601, “no binding (tested: 100 ug/ml sHLA)”; in the test with soluble HLA-B*1501 [39], “binds”; with soluble HLA-A*2902 [40], “binds”. The binding result with soluble HLA-A*3402, with soluble HLA-A*6601 [41] and in the test with soluble HLA-A*0301 [38] was “binds” in each case.
